Results taken from patent US20250361297A1, “ANTI- SIGLEC-15 BINDING MOLECULES AND METHODS OF USE” (ADAPTAM THERAPEUTICS, S.L., priority 2024, published 2025).
Positions count from the first letter of the chain named.

B1: S15B1-VH1 + VL2: humanized S15B1 antibody, humanized VH1 (SEQ ID NO: 103) with humanized VL2 (antibody, V domains shown)
VH: QVQLVQSGAEVKKPGASVKVSCKASGYAFSSSWMNWVRQAPGQGLEWIGRIYPGHGETNYNGKFKDRVTMTADTSTSTVYMELSSLRSEDTAVYFCARVDNSDPYYFDYWGQGTTVTVSS
VL: DIVLTQSPASLAVSPGQRATITCRASKSVSTSGYSYMHWYQQKPGQPPKLLIYLASNLESGVPARFSGSGSGTDFTLTINPVEAEDTATYYCQHGRELPFTFGGGTKLEIK
B2: S15B1-VH2 + VL2: humanized S15B1 antibody, humanized VH2 with humanized VL2 (antibody, V domains shown)
VH: B1 VH
VL: B1 VL
B3: S15B1-VH4 + VL2: humanized S15B1 antibody, humanized VH4 with humanized VL2 (antibody, V domains shown)
VH: B1 VH with R38K, V68A, T74K
VL: B1 VL
B4: S15B1-VH2 + VL1: humanized S15B1 antibody, humanized VH2 with humanized VL1 (antibody, V domains shown)
VH: B1 VH
VL: B1 VL with T89N
B5: S15B1-VH4 + VL1: humanized S15B1 antibody, humanized VH4 with humanized VL1 (antibody, V domains shown)
VH: B1 VH with R38K, V68A, T74K
VL: B1 VL with T89N
B6: S15B1-VH3 + VL2: humanized S15B1 antibody, humanized VH3 with humanized VL2 (antibody, V domains shown)
VH: B1 VH with R38K, V68A
VL: B1 VL
B7: S15B1-VH3 + VL1: humanized S15B1 antibody, humanized VH3 with humanized VL1 (antibody, V domains shown)
VH: B1 VH with R38K, V68A
VL: B1 VL with T89N
B8: S15B1-VH1 + VL1: humanized S15B1 antibody, humanized VH1 (SEQ ID NO: 103) with humanized VL1 (antibody, V domains shown)
VH: B1 VH
VL: B1 VL with T89N
B9: ZLA-1243-E01-MMAE (conjugate)
VH: QVQLVQSGGGLVQPGRSLRLSCAASGFTFDDYAMHWVRQAPGKGLEWVSGISWNSGSIGYADSVKGRFTISRDNAKNSLYLQMNSLRAEDTALYYCAKGLWPSYDLDAFDIWGQGTMVTVSS
VL: QSALTQPASVSGSPGQSITLSCTGTSSDVGAYNFVSWYQQHPGTAPKLMIYEVSNRPSGVSDRFSGSKSGNTASLTISGLQAEDEADYYCSSYTSTIPPFVFGTGTKVTVL

Tests used:
[1] = target: T1, recombinant human Siglec-15 protein (Homo sapiens, UniProt Q6ZMC9); assay: BIACORE surface plasmon resonance binding affinity; details: SPR; antibody as ligand, human Siglec-15 as analyte; 1:1 Langmuir model
T1 construct: purchased Bonopusbio CW70-50 ug
T1 sequence (Q6ZMC9 20-263 limits assumed): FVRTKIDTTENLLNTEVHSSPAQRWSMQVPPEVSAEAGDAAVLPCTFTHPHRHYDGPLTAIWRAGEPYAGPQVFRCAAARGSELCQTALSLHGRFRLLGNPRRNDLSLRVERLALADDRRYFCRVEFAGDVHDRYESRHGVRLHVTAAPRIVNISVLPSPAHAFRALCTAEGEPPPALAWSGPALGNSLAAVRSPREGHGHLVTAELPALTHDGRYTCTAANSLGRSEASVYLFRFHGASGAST
Excerpt: Binding affinity determination of anti-Siglec-15 monoclonal antibodies using BIACORE surface plasmon resonance: The purified anti-Siglec-15 monoclonal antibodies (mAbs) were characterized for binding affinity and binding kinetics by Biacore T200 system (GE healthcare, Pittsburgh, PA, USA). Anti-Siglec-15 antibodies were covalently linked to a CM5 chip (carboxy methyl dextran coated chip, GE healthcare, Cat #BR-1005-30) via primary amines, using a standard amine coupling kit provided by Biacore (GE healthcare, Pittsburgh, PA, USA). Un-reacted moieties on the biosensor surface were blocked with ethanolamine. Then, serially diluted recombinant human Siglec-15-his protein (Bonopusbio, CW70-50 ug), 2-fold serial dilution in HBS-EP buffer starting at 80 nM, were respectively flown onto the chip at a flow rate of […]. The antigen-antibody association kinetics was followed for 2 minutes, and the dissociation kinetics was followed for 10 minutes. The association and dissociation curves were fit to a 1:1 Langmuir binding model using BIAcore evaluation software. The dissociation rate (kd) and association constant (ka) rate constants were obtained using Evaluation Software. The equilibrium dissociation constant (KD) was calculated from the ratio of kd over ka.

[2] = target: T2, THP-1 cells overexpressing human Siglec-15 (Homo sapiens, UniProt Q6ZMC9); assay: Binding of anti-Siglec-15 ADCs to THP-1 S15+ cells (flow cytometry); details: relative to Trastuzumab-based ADC negative control
T2 construct: Human full-length Siglec-15 and CD19 genes were synthesized and cloned into the pLV-MSCV lentiviral vector; His; expressed in transfected cells; host or cells: THP-1 (lentiviral overexpression, 'THP-1 S15 OE')
T2 sequence (Q6ZMC9 20-328): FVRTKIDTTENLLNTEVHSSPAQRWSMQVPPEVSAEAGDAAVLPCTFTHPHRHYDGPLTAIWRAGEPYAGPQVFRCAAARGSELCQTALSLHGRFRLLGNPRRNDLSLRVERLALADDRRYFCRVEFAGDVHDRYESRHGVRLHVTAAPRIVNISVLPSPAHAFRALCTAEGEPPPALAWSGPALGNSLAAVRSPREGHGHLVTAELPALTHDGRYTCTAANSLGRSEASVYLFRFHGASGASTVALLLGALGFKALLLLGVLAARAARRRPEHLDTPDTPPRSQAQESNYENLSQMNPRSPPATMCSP
Protocol: Binding of anti-Siglec-15 ADCs to THP-1 S15+ cells: 50,000 cells/well of THP-1 S15 OE cells were added to a round bottom 96 well plate, centrifuged at 450×G for 5 minutes and the supernatant discarded. Human anti-siglec-15 IgG ADCs were prepared (starting at 198 nM, 3-fold serial dilution in staining buffer) and the cells were resuspended in 100 μl of ADC. Cells were incubated for 40 minutes on ice and 100 μl of staining buffer were added to each well, followed by centrifugation at 450×G for 5 minutes and supernatants were discarded. The secondary antibody was prepared (anti-human IgG-PE at 1:500 dilution) and added 100 μl to each well. Cells were incubated for 40 minutes on ice and 100 μl of staining buffer were added to each well followed by centrifugation at 450× G for 5 minutes to then discard the supernatant. Cells were resuspended in 150 μl of staining buffer and acquired in a flow cytometer.

Molecule | ka [1] | kd [1] | binding capacity to THP-1 cells overexpressing human Siglec-15 [2]
B1 | 3.54e+06 M⁻¹ s⁻¹ | 0.000563 s⁻¹ | 
B2 | 3.44e+06 M⁻¹ s⁻¹ | 0.000326 s⁻¹ | 
B3 | 1.69e+06 M⁻¹ s⁻¹ | 0.000234 s⁻¹ | 
B4 | 3.8e+06 M⁻¹ s⁻¹ | 0.000473 s⁻¹ | 
B5 | 4.1e+06 M⁻¹ s⁻¹ | 0.000385 s⁻¹ | 
B6 | 4.49e+06 M⁻¹ s⁻¹ | 0.000293 s⁻¹ | 
B7 | 3.73e+06 M⁻¹ s⁻¹ | 0.000257 s⁻¹ | 
B8 | 3.35e+06 M⁻¹ s⁻¹ | 0.000455 s⁻¹ | 
B9 |  |  | increased binding capacity
